{"source": "patent US20050019345A1", "about": "(published 2005)", "key": {"[1]": {"target": "BSA (bovine) (UniProt P02769)", "sequence (P02769 25-607 limits assumed)": "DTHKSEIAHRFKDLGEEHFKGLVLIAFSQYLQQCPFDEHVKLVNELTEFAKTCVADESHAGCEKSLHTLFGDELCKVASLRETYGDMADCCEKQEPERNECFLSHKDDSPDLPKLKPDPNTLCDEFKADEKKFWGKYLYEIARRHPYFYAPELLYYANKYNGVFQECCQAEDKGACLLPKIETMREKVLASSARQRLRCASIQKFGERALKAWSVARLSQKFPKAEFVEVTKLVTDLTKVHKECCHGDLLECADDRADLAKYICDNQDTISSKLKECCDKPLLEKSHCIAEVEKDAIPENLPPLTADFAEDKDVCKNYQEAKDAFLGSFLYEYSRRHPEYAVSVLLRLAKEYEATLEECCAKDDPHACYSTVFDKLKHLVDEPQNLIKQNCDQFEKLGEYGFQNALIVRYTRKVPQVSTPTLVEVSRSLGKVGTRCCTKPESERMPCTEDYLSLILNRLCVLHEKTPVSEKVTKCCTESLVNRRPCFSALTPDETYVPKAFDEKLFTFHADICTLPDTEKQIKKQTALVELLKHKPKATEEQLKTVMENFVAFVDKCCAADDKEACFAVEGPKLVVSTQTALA", "assay": "enzyme-linked binding assay (ELISA format), non-conjugated HRPO on immobilized BSA"}, "[2]": {"target": "human laminin (human)", "assay": "enzyme-linked binding assay (ELISA format), non-conjugated HRPO on immobilized matrix protein", "experimental": "(§1) After purification and labeling, it was subjected to an enzyme-linked binding assay with the Immobilized human matrix proteins, collagen type 1, fibronectin and laminin.\n(§2) Peroxidase-labeled Cpa-maltose binding protein fusion and recombinant purified maltose-binding protein (for control of specific binding of the bacteria) were added to the wells for 2 h at room temperature. Non-conjugated peroxidase at a 1:300 dilution in PBS-T was used as a negative control. […] All assays were repeated on at least three independent occasions."}, "[3]": {"target": "T1, human collagen type I (human, UniProt P02452 162-1218; P08123 80-1119, limits assumed)", "T1 construct": "Bought (Gibco BRL), immobilized on plates; also called type I collagen; collagen type 1", "T1 sequence (P02452 162-1218 limits assumed, chain 1 of 2)": "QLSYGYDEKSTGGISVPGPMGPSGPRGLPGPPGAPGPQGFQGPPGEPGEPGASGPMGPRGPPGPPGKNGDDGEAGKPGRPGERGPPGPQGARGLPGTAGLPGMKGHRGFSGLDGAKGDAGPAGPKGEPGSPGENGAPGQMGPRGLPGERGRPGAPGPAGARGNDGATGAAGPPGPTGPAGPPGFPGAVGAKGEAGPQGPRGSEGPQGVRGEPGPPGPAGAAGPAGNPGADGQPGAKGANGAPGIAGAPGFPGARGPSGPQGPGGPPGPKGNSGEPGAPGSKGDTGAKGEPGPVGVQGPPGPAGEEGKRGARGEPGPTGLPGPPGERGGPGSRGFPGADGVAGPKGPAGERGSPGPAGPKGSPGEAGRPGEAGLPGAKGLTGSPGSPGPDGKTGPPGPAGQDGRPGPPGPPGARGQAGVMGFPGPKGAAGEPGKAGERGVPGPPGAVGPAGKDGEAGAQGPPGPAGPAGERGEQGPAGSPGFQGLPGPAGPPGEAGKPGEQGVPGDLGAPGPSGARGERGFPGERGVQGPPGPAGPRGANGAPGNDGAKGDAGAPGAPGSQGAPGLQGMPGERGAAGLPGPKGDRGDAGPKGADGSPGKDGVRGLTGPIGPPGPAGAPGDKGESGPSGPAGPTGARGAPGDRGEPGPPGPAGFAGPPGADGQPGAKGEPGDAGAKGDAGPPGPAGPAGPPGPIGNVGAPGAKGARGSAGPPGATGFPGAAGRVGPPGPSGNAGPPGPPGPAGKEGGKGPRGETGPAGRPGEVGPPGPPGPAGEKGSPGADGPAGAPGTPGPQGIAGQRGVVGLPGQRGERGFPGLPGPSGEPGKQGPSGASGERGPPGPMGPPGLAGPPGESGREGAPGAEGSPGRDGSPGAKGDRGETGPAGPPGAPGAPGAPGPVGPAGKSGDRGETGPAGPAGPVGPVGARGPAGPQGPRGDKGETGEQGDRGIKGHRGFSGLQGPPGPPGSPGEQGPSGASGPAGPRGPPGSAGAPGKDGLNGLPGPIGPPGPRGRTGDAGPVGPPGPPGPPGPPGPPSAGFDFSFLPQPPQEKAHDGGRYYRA", "T1 sequence (P08123 80-1119 limits assumed, chain 2 of 2)": "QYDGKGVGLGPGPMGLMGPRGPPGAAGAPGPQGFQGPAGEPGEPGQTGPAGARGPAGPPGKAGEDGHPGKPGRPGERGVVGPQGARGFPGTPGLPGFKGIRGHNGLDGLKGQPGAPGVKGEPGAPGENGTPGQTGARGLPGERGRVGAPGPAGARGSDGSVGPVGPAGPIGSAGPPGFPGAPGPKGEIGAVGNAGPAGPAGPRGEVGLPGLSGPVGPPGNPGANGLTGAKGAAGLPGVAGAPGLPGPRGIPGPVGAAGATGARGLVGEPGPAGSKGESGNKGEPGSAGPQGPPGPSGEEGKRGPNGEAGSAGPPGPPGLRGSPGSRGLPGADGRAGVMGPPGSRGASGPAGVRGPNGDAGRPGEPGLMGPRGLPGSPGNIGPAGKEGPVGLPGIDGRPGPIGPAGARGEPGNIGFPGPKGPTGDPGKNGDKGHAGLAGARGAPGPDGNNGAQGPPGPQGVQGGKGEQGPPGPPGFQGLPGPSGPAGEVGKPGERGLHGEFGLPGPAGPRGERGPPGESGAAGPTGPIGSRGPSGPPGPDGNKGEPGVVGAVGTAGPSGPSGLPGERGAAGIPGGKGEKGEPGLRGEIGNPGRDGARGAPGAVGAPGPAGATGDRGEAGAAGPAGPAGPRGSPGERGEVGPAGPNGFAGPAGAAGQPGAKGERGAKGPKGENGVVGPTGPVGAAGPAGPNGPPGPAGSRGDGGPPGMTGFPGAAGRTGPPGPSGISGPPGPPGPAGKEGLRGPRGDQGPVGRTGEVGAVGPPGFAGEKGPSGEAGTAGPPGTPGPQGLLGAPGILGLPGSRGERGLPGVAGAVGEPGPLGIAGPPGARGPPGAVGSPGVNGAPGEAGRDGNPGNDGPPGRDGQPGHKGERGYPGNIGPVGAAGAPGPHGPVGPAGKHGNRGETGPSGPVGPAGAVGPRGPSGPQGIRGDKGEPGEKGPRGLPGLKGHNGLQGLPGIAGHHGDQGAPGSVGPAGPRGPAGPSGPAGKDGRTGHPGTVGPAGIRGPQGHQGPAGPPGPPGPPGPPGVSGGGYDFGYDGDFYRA", "assay": "enzyme-linked binding assay (ELISA format), non-conjugated HRPO on immobilized matrix protein", "experimental": "as §1, §2"}, "[4]": {"target": "T2, human fibronectin (human, UniProt P02751 32-2477, limits assumed)", "T2 construct": "Bought, immobilized on plates", "T2 sequence (P02751 32-2477 limits assumed)": "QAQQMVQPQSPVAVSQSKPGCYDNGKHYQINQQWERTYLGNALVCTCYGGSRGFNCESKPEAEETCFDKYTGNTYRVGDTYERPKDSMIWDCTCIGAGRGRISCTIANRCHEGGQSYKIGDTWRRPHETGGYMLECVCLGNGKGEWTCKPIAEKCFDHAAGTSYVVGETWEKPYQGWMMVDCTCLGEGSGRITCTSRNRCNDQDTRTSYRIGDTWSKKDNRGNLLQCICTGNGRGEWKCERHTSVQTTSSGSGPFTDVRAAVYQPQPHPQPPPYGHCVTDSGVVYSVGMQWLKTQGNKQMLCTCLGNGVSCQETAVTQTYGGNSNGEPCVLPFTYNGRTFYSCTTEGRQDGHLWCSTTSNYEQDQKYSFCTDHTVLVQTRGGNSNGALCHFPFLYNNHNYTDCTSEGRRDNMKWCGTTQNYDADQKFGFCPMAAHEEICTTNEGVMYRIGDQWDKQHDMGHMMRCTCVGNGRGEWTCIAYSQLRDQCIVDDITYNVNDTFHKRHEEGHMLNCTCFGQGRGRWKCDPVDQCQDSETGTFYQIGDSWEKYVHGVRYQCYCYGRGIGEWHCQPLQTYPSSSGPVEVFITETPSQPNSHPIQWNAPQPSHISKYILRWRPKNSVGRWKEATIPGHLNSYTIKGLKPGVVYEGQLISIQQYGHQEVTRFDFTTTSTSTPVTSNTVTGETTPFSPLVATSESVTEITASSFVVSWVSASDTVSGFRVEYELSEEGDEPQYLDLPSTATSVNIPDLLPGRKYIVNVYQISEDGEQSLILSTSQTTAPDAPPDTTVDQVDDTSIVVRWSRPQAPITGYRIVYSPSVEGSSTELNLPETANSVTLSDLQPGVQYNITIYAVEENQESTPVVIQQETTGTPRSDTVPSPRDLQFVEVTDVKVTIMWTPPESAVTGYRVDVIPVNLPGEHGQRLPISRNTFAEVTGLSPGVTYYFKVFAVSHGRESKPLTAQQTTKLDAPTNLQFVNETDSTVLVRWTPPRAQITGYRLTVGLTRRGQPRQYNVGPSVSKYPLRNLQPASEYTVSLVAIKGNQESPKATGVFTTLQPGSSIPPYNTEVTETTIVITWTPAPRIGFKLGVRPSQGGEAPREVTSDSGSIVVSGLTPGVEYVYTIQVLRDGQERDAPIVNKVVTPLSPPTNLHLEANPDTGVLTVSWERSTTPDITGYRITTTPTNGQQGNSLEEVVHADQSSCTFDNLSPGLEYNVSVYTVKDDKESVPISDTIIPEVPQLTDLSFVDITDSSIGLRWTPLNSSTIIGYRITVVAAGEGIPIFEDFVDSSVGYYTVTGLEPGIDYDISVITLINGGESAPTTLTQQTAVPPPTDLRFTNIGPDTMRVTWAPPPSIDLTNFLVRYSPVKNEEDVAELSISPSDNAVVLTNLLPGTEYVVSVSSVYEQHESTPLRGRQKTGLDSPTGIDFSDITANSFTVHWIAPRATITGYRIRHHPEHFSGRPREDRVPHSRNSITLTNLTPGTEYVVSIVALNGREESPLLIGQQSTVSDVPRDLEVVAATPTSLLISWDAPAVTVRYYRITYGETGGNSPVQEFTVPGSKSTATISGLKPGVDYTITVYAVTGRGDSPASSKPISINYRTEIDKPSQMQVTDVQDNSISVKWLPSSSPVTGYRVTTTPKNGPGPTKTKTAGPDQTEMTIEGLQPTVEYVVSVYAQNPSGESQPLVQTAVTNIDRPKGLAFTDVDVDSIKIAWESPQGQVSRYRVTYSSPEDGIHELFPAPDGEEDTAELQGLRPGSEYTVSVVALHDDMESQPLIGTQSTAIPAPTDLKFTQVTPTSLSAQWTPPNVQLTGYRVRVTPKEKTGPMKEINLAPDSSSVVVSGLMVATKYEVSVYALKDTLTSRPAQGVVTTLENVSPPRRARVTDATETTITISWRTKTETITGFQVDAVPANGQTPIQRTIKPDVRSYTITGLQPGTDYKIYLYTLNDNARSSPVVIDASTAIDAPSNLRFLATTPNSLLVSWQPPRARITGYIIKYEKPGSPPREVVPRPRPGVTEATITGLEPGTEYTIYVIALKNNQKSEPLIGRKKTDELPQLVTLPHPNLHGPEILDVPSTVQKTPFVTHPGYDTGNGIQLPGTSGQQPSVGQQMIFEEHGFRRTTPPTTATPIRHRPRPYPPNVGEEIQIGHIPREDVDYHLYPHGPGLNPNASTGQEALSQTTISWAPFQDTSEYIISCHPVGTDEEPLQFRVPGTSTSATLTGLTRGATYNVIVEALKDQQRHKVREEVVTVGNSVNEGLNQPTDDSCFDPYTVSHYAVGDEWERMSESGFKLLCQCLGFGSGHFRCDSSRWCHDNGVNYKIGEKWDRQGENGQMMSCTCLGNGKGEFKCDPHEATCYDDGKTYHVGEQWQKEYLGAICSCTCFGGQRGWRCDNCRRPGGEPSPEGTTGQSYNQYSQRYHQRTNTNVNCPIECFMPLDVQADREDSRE", "assay": "enzyme-linked binding assay (ELISA format), non-conjugated HRPO on immobilized matrix protein", "experimental": "as §1, §2"}}, "data": [{"binder": "non-conjugated horseradish peroxidase (enzyme, UniProt P00433 31-338, looked up, Negative control; also called HRPO; HRPO (negative control)) QLTPTFYDNSCPNVSNIVRDTIVNELRSDPRIAASILRLHFHDCFVNGCDASILLDNTTSFRTEKDAFGNANSARGFPVIDRMKAAVESACPRTVSCADLLTIAAQQSVTLAGGPSWRVPLGRRDSLQAFLDLANANLPAPFFTLPQLKDSFRNVGLNRSSDLVALSGGHTFGKNQCRFIMDRLYNFSNTGLPDPTLNTTYLQTLRGLCPLNGNLSALVDFDLRTPTIFDNKYYVNLEEQKGLIQSDQELFSSPNATDTIPLVRSFANSTQTFFNAFVEAMDRMGNITPLTGTQGQIRLNCRVVNSNS", "values": [{"measurement": "OD492", "setting": "[1]", "result": 0.028, "unit": "OD492"}, {"measurement": "OD492", "setting": "[2]", "result": 0.038, "unit": "OD492"}, {"measurement": "OD492", "setting": "[3]", "result": 0.049, "unit": "OD492"}, {"measurement": "OD492", "setting": "[4]", "result": 0.038, "unit": "OD492"}]}]}
